Test results taken from FireProtDB (doi:10.1002/prot.20309).

B1: Beta-lactoglobulin-1A/1C wild type, P04119 (protein)
chain: MRCLLLTLGLALLCGVQAVEVTPIMTELDTQKVAGTWHTVAMAVSDVSLLDAKSSPLKAYVEGLKPTPEGDLEILLQKRENDKCAQEVLLAKKTDIPAVFKINALDENQLFLLDTDYDSHLLLCMENSASPEHSLVCQSLARTLEVDDQIREKFEDALKTLSVPMRILPAQLEEQCRV
B2: Beta-lactoglobulin wild type, P02754 (protein)
chain: MKCLLLALALTCGAQALIVTQTMKGLDIQKVAGTWYSLAMAASDISLLDAQSAPLRVYVEELKPTPEGDLEILLQKWENGECAQKKIIAEKTKIPAVFKIDALNENKVLVLDTDYKKYLLFCMENSAEPEQSLACQCLVRTPEVDDEALEKFDKALKALPMHIRLSFNPTQLEEQCHI

Details: Sus scrofa; pH 2; 25 °C; GdnHCl; Fluorescence; Phosphate 10 mM; whole UniProt chain shown

Row | Protein | denaturant m value [kcal/mol/M] | denaturant midpoint (higher = more stable) [M] | unfolding free energy [kcal/mol]
1 | B1 | 2.2 | 1 | 2.1

Same assay, conditions: Sus scrofa; pH 2; 25 °C; GdnHCl; NMR; Phosphate 10 mM; whole UniProt chain shown

Row | Protein | denaturant m value [kcal/mol/M] | denaturant midpoint (higher = more stable) [M] | unfolding free energy [kcal/mol]
2 | B1 | 3.5 | 0.7 | 2.3

Same assay, conditions: Sus scrofa; pH 6; 25 °C; GdnHCl; NMR; Phosphate 10 mM; whole UniProt chain shown

Row | Protein | denaturant m value [kcal/mol/M] | denaturant midpoint (higher = more stable) [M] | unfolding free energy [kcal/mol]
3 | B1 | 4.2 | 1.1 | 4.6

Same assay, conditions: Bos taurus; pH 2; 25 °C; GdnHCl; CD; Phosphate 10 mM; transition: 3; whole UniProt chain shown

Row | Protein | denaturant m value [kcal/mol/M] | denaturant midpoint (higher = more stable) [M] | unfolding free energy [kcal/mol]
4 | B2 | 1 | 3.8 | 12.8

Same assay, conditions: Bos taurus; pH 6; 25 °C; GdnHCl; CD; Phosphate 10 mM; whole UniProt chain shown

Row | Protein | denaturant m value [kcal/mol/M] | denaturant midpoint (higher = more stable) [M] | unfolding free energy [kcal/mol]
5 | B2 | 4.1 | 2.8 | 11.5
